Experimental data reported in patent publication US5656452A, “NF-ATp, ' a T lymphocyte DNA-binding protein” (President and Fellows of Harvard College, priority 1993, dated 1997).

How the values were obtained:
[1] = target: NF-ATp XS + c-Fos + c-Jun (UniProt Q60591;P12841;P17325 Q60591:400-863,P12841:1-380,P17325:1-334); test: EMSA; Fos-Jun-NF-ATp complex; competed by AP-1 oligonucleotide; c-Fos alone does not associate; conditions: tags: His6 on NF-ATp XS; full-length c-Fos and c-Jun; label: 32P
Chain of NF-ATp XS + c-Fos + c-Jun (P12841 whole entry, chain 2 of 2, the tested form may be a part): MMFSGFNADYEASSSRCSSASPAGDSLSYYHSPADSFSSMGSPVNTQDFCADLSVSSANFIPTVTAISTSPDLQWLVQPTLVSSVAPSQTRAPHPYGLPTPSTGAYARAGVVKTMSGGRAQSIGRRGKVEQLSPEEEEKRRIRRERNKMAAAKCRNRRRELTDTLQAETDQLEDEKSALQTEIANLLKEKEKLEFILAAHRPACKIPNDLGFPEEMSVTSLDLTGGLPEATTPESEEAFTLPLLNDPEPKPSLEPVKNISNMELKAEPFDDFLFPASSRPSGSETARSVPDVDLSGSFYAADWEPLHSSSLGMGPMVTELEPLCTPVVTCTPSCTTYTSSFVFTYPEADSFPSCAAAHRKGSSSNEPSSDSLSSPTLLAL
Chain of NF-ATp XS + c-Fos + c-Jun (P17325 whole entry, chain 3 of 2, the tested form may be a part): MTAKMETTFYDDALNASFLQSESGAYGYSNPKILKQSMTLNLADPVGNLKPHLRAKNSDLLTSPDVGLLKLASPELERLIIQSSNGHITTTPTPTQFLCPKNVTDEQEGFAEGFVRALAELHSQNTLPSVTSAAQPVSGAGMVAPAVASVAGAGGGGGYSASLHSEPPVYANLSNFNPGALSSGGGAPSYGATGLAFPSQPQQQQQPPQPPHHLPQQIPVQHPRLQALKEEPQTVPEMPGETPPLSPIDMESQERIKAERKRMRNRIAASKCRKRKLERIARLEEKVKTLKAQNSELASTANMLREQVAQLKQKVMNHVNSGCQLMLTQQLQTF
Protocol: (§1) Figure 12: FIG. 12 is a photograph of an EMSA gel. Binding of a recombinant fragment of NF-AT_p (NF-AT_pXS) to target DNA and association of the recombinant NF-AT_p fragment with Fos and Jun proteins was evaluated. The binding of the recombinant fragment of murine NF-AT_p to the distal NF-AT site of the murine IL-2 promoter was assessed by EMSA in the presence or absence of a 200-fold excess of unlabelled competitor oligonucleotides as shown in Lane 1–5. The arrows indicate two DNA-protein complexes formed with NF-AT_pXS. Full-length recombinant c-Fos and c-Jun proteins were included in the same binding reactions, as shown in Lanes 7–9. The open arrows indicate Jun—Jun-NF-AT_pXS complexes, while the closed arrows indicate Fos-Jun-NF-AT_pXS complexes.

[2] = target: T1, NF-ATp (purified from Cl.7W2 T cells) (Mus musculus, UniProt Q60591 SEQ:1-890); test: EMSA; purified 120 kDa protein, renatured from gel; conditions: tags: native; label: 32P
T1 chain: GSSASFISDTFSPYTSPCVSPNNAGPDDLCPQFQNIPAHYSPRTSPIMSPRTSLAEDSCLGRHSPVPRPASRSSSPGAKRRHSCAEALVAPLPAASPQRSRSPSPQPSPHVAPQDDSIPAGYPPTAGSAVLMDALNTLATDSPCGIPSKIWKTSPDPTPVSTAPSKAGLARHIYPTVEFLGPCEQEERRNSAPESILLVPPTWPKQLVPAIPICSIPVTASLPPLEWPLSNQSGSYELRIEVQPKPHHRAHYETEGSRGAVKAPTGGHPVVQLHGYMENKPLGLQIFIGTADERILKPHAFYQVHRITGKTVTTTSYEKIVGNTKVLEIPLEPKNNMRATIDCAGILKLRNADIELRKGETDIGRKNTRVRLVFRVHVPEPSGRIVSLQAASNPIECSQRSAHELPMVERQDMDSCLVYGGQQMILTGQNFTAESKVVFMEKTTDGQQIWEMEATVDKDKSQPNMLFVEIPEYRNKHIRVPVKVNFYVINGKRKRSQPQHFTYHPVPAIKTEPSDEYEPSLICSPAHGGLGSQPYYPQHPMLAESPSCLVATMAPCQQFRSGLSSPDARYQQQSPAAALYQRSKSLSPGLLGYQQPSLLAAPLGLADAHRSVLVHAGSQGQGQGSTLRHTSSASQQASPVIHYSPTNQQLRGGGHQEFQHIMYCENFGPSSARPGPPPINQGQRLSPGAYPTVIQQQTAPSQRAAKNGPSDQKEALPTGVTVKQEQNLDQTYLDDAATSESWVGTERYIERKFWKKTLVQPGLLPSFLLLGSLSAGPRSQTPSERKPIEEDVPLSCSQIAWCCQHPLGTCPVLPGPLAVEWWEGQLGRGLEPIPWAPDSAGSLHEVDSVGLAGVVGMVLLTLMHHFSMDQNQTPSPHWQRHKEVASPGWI
Protocol: EMSAs were performed using 18 μl of renatured proteins in a 30 μl mix containing 4 mM Hepes, pH 7.4, 84 mM NaCl, 20 mM KCl, 0.08 mM EDTA, 9% glycerol, 0.7 mg/ml BSA, 17 μg/ml poly(dI:dC) and 0.125 ng of ^32P-labelled oligonucleotide. For competition assays, a 200-fold excess of unlabeled oligonucleotide was added to the reaction. The reactions were incubated for 15 minutes at room temperature followed by electrophoresis at 4° C. on 4% Tris/borate/EDTA/acrylamide gels. The NF-AT oligonucleotide used had the sequence GCCCAAAGAG-GAAAATTTGTTTCATACAG (SEQ ID NO:1), corresponding to the distal NF-AT site from the murine IL-2 promoter (nucleotides −295 to −267 relative to the transcription start site, (Serfling, E., Barthelmas, R., Pfeuffer, I., Schenk, B., Zarius, S., Swoboda, R., Mercurio, F., and Karin, M. (1989) *EMBO J.* 8, 465–473)). Oligonucleotides bearing mutations in the NF-AT site were as follows: M1, […] (SEQ ID NO:2); M2, […] (SEQ ID NO:3); M3, […] […]
Figure 8: FIG. 8 is a photograph of an EMSA gel showing an analysis of NF-AT_p by renaturation of NF-AT_p activity following purification of the protein using SDS-polyacrylamide gel electrophoresis. […] After electrophoresis, the gel was sliced, proteins were eluted from gel slices and renatured, and the fractionated proteins were evaluated in an EMSA for their ability to bind to the NF-AT site of the murine IL-2 promoter.

c-Fos + c-Jun = c-Fos + c-Jun (UniProt P12841;P17325 P12841:1-380,P17325:1-334); test: EMSA; no NF-ATp present; conditions: tags: full-length; label: 32P
Chain of c-Fos + c-Jun (P12841 whole entry, chain 1 of 2): as the sequence (P12841 whole entry, chain 2 of 2, the tested form may be a part) above
Chain of c-Fos + c-Jun (P17325 whole entry, chain 2 of 2): as the sequence (P17325 whole entry, chain 3 of 2, the tested form may be a part) above
Protocol: as §1

NF-ATp XS + c-Jun = NF-ATp XS + c-Jun (UniProt Q60591;P17325 Q60591:400-863,P17325:1-334); test: EMSA; slower-migrating Jun-Jun-NF-ATp complex; conditions: tags: His6 on NF-ATp XS; full-length c-Jun; label: 32P
Chain of NF-ATp XS + c-Jun (P17325 whole entry, one chain of several): as the sequence (P17325 whole entry, chain 3 of 2, the tested form may be a part) above
Protocol: as §1

[3] = target: T2, NF-ATp XS (464-aa recombinant fragment of murine NF-ATp) (Mus musculus, UniProt Q60591 SEQ:226-689); test: EMSA; two complexes; self-competed by 200-fold excess; methylation interference shows GGAA core required; conditions: label: 32P
T2 chain: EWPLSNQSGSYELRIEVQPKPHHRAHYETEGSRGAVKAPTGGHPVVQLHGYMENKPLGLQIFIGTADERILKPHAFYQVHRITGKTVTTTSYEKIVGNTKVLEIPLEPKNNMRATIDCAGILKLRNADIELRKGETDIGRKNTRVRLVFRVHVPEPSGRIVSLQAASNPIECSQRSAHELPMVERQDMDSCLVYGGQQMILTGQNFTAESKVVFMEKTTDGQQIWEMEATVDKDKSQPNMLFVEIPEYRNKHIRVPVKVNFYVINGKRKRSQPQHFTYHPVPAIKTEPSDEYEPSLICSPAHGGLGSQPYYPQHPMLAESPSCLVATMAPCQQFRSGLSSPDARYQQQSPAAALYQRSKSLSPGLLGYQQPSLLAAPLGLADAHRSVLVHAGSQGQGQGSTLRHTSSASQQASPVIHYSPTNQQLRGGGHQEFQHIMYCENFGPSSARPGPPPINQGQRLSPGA
Protocol: (§2) EMSAs were performed using 18 μl of renatured proteins in a 30 μl mix containing 4 mM Hepes, pH 7.4, 84 mM NaCl, 20 mM KCl, 0.08 mM EDTA, 9% glycerol, 0.7 mg/ml BSA, 17 μg/ml poly(dI:dC) and 0.125 ng of ^32P-labelled oligonucleotide. For competition assays, a 200-fold excess of unlabeled oligonucleotide was added to the reaction. The reactions were incubated for 15 minutes at room temperature followed by electrophoresis at 4° C. on 4% Tris/borate/EDTA/acrylamide gels. The NF-AT oligonucleotide used had the sequence GCCCAAAGAG-GAAAATTTGTTTCATACAG (SEQ ID NO:1), corresponding to the distal NF-AT site from the murine IL-2 promoter (nucleotides −295 to −267 relative to the transcription start site, (Serfling, E., Barthelmas, R., Pfeuffer, I., Schenk, B., Zarius, S., Swoboda, R., Mercurio, F., and Karin, M. (1989) *EMBO J.* 8, 465–473)). Oligonucleotides bearing mutations in the NF-AT site were as follows: M1, […] (SEQ ID NO:2); M2, […] […]
(§3) Figure 12: FIG. 12 is a photograph of an EMSA gel. Binding of a recombinant fragment of NF-AT_p (NF-AT_pXS) to target DNA and association of the recombinant NF-AT_p fragment with Fos and Jun proteins was evaluated. The binding of the recombinant fragment of murine NF-AT_p to the distal NF-AT site of the murine IL-2 promoter was assessed by EMSA in the presence or absence of a 200-fold excess of unlabelled competitor oligonucleotides as shown in Lane 1–5. […]

[4] = target: NF-ATp (T cell) + c-Fos + c-Jun (UniProt Q60591;P12841;P17325 Q60591:1-927,P12841:1-380,P17325:1-334); test: EMSA; upper complex with partially purified NF-ATp; not seen with c-Fos only; conditions: tags: native NF-ATp with recombinant c-Fos and c-Jun; label: 32P
Chain of NF-ATp (T cell) + c-Fos + c-Jun (Q60591 whole entry, chain 1 of 3, the tested form may be a part): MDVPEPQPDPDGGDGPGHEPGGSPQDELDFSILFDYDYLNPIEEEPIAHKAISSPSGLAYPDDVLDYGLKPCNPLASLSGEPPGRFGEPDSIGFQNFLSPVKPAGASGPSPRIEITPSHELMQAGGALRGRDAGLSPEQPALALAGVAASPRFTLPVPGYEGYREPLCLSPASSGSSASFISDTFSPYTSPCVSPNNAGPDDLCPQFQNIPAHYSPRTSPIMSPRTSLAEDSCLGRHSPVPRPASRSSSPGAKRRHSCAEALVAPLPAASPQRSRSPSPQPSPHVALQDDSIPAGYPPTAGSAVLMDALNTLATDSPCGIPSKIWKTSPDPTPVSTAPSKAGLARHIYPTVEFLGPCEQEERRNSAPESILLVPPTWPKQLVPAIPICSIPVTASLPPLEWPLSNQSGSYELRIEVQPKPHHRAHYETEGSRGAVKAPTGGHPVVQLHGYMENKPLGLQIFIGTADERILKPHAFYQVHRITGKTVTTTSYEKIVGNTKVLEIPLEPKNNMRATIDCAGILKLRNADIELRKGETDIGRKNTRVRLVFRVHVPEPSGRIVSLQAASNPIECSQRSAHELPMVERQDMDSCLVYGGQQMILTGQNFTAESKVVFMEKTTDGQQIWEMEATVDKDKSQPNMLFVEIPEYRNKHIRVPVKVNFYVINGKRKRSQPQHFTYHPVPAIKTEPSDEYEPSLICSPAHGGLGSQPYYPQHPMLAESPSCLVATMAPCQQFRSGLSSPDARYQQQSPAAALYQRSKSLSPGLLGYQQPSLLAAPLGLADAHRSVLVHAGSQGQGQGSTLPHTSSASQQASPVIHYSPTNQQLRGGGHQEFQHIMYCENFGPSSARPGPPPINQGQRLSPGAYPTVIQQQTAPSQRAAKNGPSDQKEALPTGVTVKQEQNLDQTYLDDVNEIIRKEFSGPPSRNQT
Chain of NF-ATp (T cell) + c-Fos + c-Jun (P12841 whole entry, chain 2 of 3, the tested form may be a part): as the sequence (P12841 whole entry, chain 2 of 2, the tested form may be a part) above
Chain of NF-ATp (T cell) + c-Fos + c-Jun (P17325 whole entry, chain 3 of 3, the tested form may be a part): as the sequence (P17325 whole entry, chain 3 of 2, the tested form may be a part) above
Protocol: Figure 7: FIG. 7 is a photograph of an EMSA gel showing the results of an EMSA. […] Partially purified NF-AT_p was incubated with labeled oligonucleotide corresponding to the distal NF-AT site of the murine IL-2 promoter, either alone (lanes 1, 7, 13), with full length or truncated (T) recombinantly produced c-Fos and c-Jun proteins (lanes 2–5 and 8–11, respectively) or with an equivalent concentration of bovine serum albumin. Lane 5 contained 50% more c-Fos and c-Jun compared to lane 4. Lanes 11–13 contain half the amount of NF-AT_p compared to lanes 1–10. […] Bound complexes were separated from free probe by EMSA. The position of free probe, of the lower (NF-AT_p) complex and upper (NF-AT_p-Fos-Jun) complex are indicated.

[5] = target: T2, NF-ATp XS (464-aa recombinant fragment …); test: competition; 200-fold excess competes as strongly as wild type
Protocol: as §2, §3

[6] = target: T2, NF-ATp XS (464-aa recombinant fragment …); test: competition; 200-fold excess does not compete
Protocol: as §2, §3

B1: NF-AT oligonucleotide (distal NF-AT site, murine IL-2 promoter) (dsDNA)
DNA 1: GCCCAAAGAGGAAAATTTGTTTCATACAG
DNA 2: CTGTATGAAACAAATTTTCCTCTTTGGGC
[1]
  binding result: binds
[2]
  binding result: binds
c-Fos + c-Jun
  binding result: no binding
NF-ATp XS + c-Jun
  binding result: binds
[3]
  binding result: binds
[4]
  binding result: binds

B2: M1 (dsDNA)
DNA 1: GCCCAAAGAGGAAAATTTGTTTATATCAG
DNA 2: CTGATATAAACAAATTTTCCTCTTTGGGC
[5]
  binding result: binds

B3: M3 (dsDNA)
DNA 1: GCCCAAAGACCTTAATTTGTTTCATACAG
DNA 2: CTGTATGAAACAAATTAAGGTCTTTGGGC
[6]
  binding result: no binding
